From publication PMC2112662

Biological target: type IV (basement membrane) collagen of Np cells (Peak II) (mouse (endogenous in Np fibrosarcoma cells))
Assay: radioligand binding

“laminin (from the EHS (Engelbreth-Holm-Swarm) sarcoma) (from UniProt P19137 25-3083; P02469 22-1786; P02468 34-1607) (complex)” gave a laminin specifically bound (cpm) at 50 ng 125I-laminin added of 0 cpm and a laminin specifically bound (cpm) at 500 ng 125I-laminin added of 9250 cpm.
